Measurements: publication PMC4516795 (The Journal of Experimental Medicine, 2015)

B1: parent anti-basigin mAb (antibody, V domains shown)
VH: EVQLQQSGPELVKTGASVKISCKASGYSFSDDYMHWVKQSHGKSLEWIGYISCYNGVPSYNQKFKGKATFTVDTSSSTAYMQFSSLTSEDSAVYYCARGGNHGFYYHAMDYWGQGTSVTVSS
VL: DIVLTQSPAILSVSPGERVSFSCRASQSIGTGIHWYQQRTNGSPRLLIKFASESISGIPSRFSGSGSGTDFTLSINSVESEDIADYFCQQSTSWPYTFGGGTKLEIK
B2: recombinant chimeric anti-basigin antibody Ab-1 (antibody, V domains shown)
VH: B1 VH
VL: B1 VL

Target: purified monomeric (gel filtered) recombinant basigin (Homo sapiens, UniProt P35613-2, strain)
Assay: SPR

Binder | Kd [nM]
B1 | ~4
B2 | ~4
